Columns and labels:
MD65 IgG-YTE (human) = assay: BLI
human FcRn (human) = human FcRn (human) (UniProt P55899); assay: BLI; pH 6.0

Row | Substance | fold change of affinity (steady state) against MD65 IgG (MD65 IgG-YTE (human)) [fold] | fold change of on-rate against MD65 IgG (MD65 IgG-YTE (human)) [fold] | Kd (human FcRn (human)) [µM]
1 | human FcRn (from UniProt P55899 24-297) (receptor) | 10 | 3 | 
2 | MD65 IgG-YTE |  |  | 0.02
